Measured values published in US20260193366A1 (APOGEE THERAPEUTICS, published 2026).

T1: cynomolgus monkey IL-4Rα (cynomolgus monkey, UniProt P24394 26-231 (human entry), limits assumed)
T1 construct: also called Cyno IL-4Rα; cyIL-4Rα
T1 chain: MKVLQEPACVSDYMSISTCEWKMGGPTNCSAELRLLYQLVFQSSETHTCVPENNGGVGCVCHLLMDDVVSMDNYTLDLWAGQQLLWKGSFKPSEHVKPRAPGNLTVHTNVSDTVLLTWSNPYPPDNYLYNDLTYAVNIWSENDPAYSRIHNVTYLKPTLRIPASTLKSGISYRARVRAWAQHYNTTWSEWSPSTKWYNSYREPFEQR

T2: human IL-4Rα (human, UniProt P24394 26-232)
T2 construct: also called Hu IL-4Rα; hIL-4Rα
T2 sequence: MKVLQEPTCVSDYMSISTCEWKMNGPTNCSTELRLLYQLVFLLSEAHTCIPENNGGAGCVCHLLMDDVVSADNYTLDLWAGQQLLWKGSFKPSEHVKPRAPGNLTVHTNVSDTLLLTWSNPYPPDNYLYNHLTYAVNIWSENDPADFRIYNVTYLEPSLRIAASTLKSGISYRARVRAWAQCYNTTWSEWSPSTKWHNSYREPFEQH

T3: hIL-4Rα on cells (human, UniProt P24394 26-825)
T3 sequence: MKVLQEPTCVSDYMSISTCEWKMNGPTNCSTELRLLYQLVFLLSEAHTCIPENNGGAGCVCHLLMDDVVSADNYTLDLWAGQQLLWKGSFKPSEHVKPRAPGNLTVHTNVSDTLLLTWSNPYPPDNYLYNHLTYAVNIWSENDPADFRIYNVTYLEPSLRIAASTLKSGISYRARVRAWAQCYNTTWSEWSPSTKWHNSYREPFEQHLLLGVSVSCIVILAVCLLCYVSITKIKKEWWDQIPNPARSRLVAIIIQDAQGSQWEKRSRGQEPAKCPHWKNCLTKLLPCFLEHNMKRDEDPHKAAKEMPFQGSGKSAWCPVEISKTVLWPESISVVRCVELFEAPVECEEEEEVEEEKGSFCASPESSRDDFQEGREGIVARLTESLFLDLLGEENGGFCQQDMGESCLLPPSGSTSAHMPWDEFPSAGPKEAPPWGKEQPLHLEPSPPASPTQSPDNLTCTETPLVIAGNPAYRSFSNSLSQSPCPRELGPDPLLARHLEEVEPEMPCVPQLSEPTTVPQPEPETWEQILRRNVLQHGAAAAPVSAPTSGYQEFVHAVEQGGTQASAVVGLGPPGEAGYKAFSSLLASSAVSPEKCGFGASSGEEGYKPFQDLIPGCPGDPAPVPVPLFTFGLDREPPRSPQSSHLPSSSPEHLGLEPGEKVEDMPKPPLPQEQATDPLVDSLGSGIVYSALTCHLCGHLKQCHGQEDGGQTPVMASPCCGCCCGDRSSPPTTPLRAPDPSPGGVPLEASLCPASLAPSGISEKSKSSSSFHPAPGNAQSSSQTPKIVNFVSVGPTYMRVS


Assays:
[1] = target: T1, cynomolgus monkey IL-4Rα; assay: SPR, Carterra LSA;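 note: antibodies captured on an anti-human Fc sensor chip, antigen injected at several concentrations, association and dissociation rates fitted with a 1:1 Langmuir model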
Description: (§1) Binding affinity (KD) of antibodies to human and cynomolgus monkey IL-4Rα was determined through surface plasmon resonance (SPR) using a Carterra LSA. Briefly, an HC30M sensor chip that was previously functionalized with a polyclonal mixture of goat anti-human Fc antibody and used to capture purified antibodies at a level between 100-1000 RLU. […] Regeneration of the chip between different concentrations of antigen was performed with 200 mM phosphoric acid and antibody was captured again as previously described. Association and dissociation rate constants were subsequently determined through fitting to a 1:1 Langmuir binding model using the Kinetics Software from Carterra from which a KD value was derived.

[2] = target: T2, human IL-4Rα; assay: SPR, Carterra LSA;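 note: antibodies captured on an anti-human Fc sensor chip, antigen injected at several concentrations, association and dissociation rates fitted with a 1:1 Langmuir model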
Description: as §1

[3] = target: T3, hIL-4Rα on cells; assay: cell-based or functional assay
[4] = target: T3, hIL-4Rα on cells; assay: FACS on HEK293 cells, competitor biotin-hIL-13;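 note: stably transduced cells co-expressing both receptor chains, stained cold, with cell-bound signal read as mean fluorescence intensity by flow cytometry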
Description: Briefly, HEK293 previously transduced to stably express both hIL-13Rα and hIL-4Rα were cultured and harvested. Cells were seeded at 200,000 cells in 100 uL per well. Cells were washed and the supernatant discarded. […] The cells were stained in this mixture at 4° C. for 1 hour. […] Cells were incubated 4° C. for 1 hour, protected from light. Cells were then washed and the MFI of cells in each well were recorded by FACS using a BD FACSCanto II. Subsequent data were analyzed using GraphPad Prism.

[5] = target: T3, hIL-4Rα on cells; assay: cell-based or functional assay; remark: listed apart in the source
[6] = target: T3, hIL-4Rα on cells; assay: cell-based or functional assay; remark: listed apart in the source
[7] = target: T3, hIL-4Rα on cells; assay: FACS on HEK293 cells, competitor biotin-hIL-4;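 note: HEK293 cells stably co-expressing hIL-13Rα and hIL-4Rα, stained for 1 h at 4 °C, read-out as mean fluorescence intensity by flow cytometry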

| Binder | KD Relative to Dupilumab [1] | Kd [1] | KD Relative to Dupilumab [2] | Kd [2] | Relative Inhibition of IL-4 induced TARC IC50 [3] | Relative Inhibition of IL-13 induced TARC IC50 [3] | Relative Blockade of IL-13 Binding IC50 [4] | Relative Inhibition of IL-4 induced pSTAT6 IC50 [5] | Relative Inhibition of IL-13 induced pSTAT6 IC50 [5] | Relative Inhibition of IL-4 induced TF-1 Proliferation IC50 [6] | Relative Inhibition of IL-13 induced TF-1 Proliferation IC50 [6] | Relative Blockade of IL-4 Binding IC50 [7] |
| --- | --- | --- | --- | --- | --- | --- | --- | --- | --- | --- | --- | --- |
| Construct 28 (mAb436) (antibody, IgG4, V domains shown, VH/VL only) VH: EVQLVESGGGLEQPGGSLRLSCAGSGFTFRDFAMTWVRQAPGKGLEWVSSVSGSGGNTYYADSVKGRFTISRDNSKNTLYLQMNSLRAEDTAVYYCAKDRLSVTVRPRYYGLDVWGQGTTVTVSS VL: DIVMTQSPLSLPVTPGEPASISCTSSQSLLYSIGYNYVDWYLQKSGQSPQLLIYLGNKRASGVPDRFSGSGSGTDFTLKISRVEAEDVGFYYCMQSLQTPYTFGQGTKLEIK | 0.09 | 54.7 nM | 0.69 | 0.00777 nM | 0.58 relative to dupilumab | 1.81 relative to dupilumab | 0.611 relative to dupilumab | 0.999 relative to dupilumab | 0.497 relative to dupilumab | 1.19 relative to dupilumab | 0.634 relative to dupilumab | 0.849 relative to dupilumab |
| Construct 34 (mAb459) (antibody, IgG4, V domains shown, VH/VL only) VH: EVQLVESGGGLEQPGGSLRLSCAGSGFTFRDFAMTWVRQAPGKGLEWVSSISGSGDNIYYADSVKGRFTISRDNSKNTLYLQMNSLRAEDTAVYYCAKDRLSKTIRPRYYGLDVWGQGTTVTVSS VL: DIVMTQSPLSLPVTPGEPASISCRSSQGLLYSIGYNYVDWYLQKSGQSPQLLIYLGNKRASGVPDRFSGSGSGTDFTLKISRVEAEDVGFYYCMQALDTPYTFGQGTKLEIK | 0.53 | 334 nM | 1.01 | 0.0114 nM | 4.32 relative to dupilumab | 1.35 relative to dupilumab | 1.21 relative to dupilumab | 0.464 relative to dupilumab | 2.42 relative to dupilumab | 1.46 relative to dupilumab | 1.55 relative to dupilumab | 1.23 relative to dupilumab |
| Construct 33 (mAb450) (antibody, IgG4, V domains shown, VH/VL only) VH: EVQLVESGGGLEQPGGSLRLSCAGSGFTFRDFAMTWVRQAPGKGLEWVSSISGSGGNIYYADSVKGRFTISRDNSKNTLYLQMNSLRAEDTAVYYCAKDRVSITIRPRYYGLDVWGQGTTVTVSS VL: DIVMTQSPLSLPVTPGEPASISCTASQSLLYSIGYNYVDWYLQKSGQSPQLLIYLGSKRASGVPDRFSGSGSGTDFTLKISRVEAEDVGFYYCMQALGSPYTFGQGTKLEIK | 0.05 | 33.9 nM | 0.78 | 0.00875 nM | 3.2 relative to dupilumab | 1.07 relative to dupilumab | 1.21 relative to dupilumab | 0.888 relative to dupilumab | 1.59 relative to dupilumab | 1.05 relative to dupilumab | 0.926 relative to dupilumab | 1.01 relative to dupilumab |
